According to patent US20240342207, “MODIFIED NUCLEIC ACID COMPOSITIONS AND ASSOCIATED METHODS FOR TREATMENT OF PHENYLKETONURIA” (BOARD OF REGENTS, THE UNIVERSITY OF TEXAS SYSTEM, published 2024):

Assays:
Test in all cases: EMSA; one of 13 of 17 binding mutants; affinity not decreased
Details in all cases: tags: His-tag, E. coli; stem-loop
PAH P281L = biological target: T1, PAH P281L (Homo sapiens, UniProt P00439 P00439:1-452, P281L)
T1 sequence: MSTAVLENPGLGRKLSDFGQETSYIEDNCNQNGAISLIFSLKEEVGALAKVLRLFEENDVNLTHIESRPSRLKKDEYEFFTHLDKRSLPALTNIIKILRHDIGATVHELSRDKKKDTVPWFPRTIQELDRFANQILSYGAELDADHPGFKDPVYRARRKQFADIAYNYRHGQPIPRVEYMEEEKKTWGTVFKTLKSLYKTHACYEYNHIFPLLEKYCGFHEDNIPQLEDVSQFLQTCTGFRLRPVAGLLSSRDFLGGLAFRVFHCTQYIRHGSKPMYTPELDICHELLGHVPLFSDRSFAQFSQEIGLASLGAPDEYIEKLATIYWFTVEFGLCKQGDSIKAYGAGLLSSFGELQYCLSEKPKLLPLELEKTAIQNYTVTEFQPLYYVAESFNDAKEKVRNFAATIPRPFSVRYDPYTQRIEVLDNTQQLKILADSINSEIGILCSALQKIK

PAH F299C = biological target: T2, PAH F299C (Homo sapiens, UniProt P00439 P00439:1-452, F299C)
T2 sequence: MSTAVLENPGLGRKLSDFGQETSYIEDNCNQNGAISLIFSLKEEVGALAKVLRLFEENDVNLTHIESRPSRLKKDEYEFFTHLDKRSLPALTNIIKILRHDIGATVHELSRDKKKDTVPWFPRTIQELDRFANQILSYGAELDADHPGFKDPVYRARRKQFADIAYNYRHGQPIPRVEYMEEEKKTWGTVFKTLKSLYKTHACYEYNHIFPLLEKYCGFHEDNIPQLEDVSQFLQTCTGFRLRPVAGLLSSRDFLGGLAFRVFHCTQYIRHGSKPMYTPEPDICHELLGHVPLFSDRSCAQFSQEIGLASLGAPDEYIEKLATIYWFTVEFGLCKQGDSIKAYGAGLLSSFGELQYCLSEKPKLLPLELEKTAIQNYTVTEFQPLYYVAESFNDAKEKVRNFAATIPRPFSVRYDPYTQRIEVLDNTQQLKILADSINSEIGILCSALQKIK

PAH R408W = biological target: T3, PAH R408W (Homo sapiens, UniProt P00439 P00439:1-452, R408W)
T3 sequence: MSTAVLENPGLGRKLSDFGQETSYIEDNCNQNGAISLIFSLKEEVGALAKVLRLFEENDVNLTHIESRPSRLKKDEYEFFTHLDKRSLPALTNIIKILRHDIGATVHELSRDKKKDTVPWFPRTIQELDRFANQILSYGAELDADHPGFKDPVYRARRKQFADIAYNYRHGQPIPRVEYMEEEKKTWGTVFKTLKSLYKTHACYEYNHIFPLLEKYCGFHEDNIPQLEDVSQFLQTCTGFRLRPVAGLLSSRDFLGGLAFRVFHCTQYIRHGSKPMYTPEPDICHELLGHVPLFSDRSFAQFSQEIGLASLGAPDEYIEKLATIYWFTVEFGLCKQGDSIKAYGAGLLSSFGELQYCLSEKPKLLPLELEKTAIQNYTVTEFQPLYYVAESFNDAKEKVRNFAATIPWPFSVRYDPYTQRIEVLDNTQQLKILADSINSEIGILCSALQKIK

PAH P275L = biological target: T4, PAH P275L (Homo sapiens, UniProt P00439 P00439:1-452, P275L)
T4 sequence: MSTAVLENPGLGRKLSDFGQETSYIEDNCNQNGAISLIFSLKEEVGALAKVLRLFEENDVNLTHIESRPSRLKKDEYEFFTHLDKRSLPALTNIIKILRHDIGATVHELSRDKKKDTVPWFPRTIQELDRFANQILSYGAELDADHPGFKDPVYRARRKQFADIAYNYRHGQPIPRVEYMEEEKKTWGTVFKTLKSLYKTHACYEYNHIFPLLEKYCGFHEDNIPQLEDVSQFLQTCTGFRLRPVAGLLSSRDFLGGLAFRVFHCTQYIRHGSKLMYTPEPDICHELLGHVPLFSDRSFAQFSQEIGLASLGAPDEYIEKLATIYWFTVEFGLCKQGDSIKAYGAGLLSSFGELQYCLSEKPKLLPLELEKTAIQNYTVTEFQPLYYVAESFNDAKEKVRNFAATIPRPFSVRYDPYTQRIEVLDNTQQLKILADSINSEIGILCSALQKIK

Measured: binding result

CAAAAUGCAUAUGUAUCUUUG (ssRNA) [HULC 181-201 mimic]
binds: all assays above
